According to patent publication US20170101472A1 (Regeneron, published 2017):
Numbering of substitutions follows the chain as printed. Names may count otherwise.

T1: monkey LAG3 (mfLAG3) expressed on HEK293 cells (cynomolgus monkey, UniProt P18627 24-525 (human entry))
T1 construct: also called HEK293/mfLAG3; HEK293-mfLAG3
T1 chain: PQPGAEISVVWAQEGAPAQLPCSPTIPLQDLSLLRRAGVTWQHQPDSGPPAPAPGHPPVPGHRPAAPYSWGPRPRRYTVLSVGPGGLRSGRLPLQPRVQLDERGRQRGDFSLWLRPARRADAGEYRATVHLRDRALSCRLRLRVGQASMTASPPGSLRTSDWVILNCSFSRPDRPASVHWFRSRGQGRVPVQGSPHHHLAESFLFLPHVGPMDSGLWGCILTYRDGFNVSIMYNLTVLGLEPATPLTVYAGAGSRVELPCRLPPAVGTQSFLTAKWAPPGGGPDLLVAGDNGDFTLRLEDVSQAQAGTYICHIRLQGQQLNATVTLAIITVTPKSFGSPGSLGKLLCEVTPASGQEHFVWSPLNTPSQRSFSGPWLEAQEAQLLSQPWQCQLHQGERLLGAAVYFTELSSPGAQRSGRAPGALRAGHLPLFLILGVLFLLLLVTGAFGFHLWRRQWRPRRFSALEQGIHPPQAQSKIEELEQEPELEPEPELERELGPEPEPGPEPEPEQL

T2: cynomolgus LAG3 on activated CD4+ and CD8+ cynomolgus T cells (cynomolgus)
T2 chain: T1 chain

B1: H4H17826P2 (antibody, human IgG4, V domains shown)
VH: EVQLVESGGGLVQPGGSLRLSCAASGFTFSSYEMNWVRQAPGKGLEWVSYISSSGNTKDYAGSVKGRVTISRDNAKNLLYLQMNSLRAEDTAVYHCARDGGHYDILTGSMSYYYYALDVWGQGTTVTVSS
VL: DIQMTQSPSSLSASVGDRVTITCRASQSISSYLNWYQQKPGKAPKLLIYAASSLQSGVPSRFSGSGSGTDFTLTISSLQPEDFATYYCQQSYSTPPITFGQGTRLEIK
notes: H4H = human IgG4 Fc with S108P hinge mutation
B2: H4sH14813N (antibody, human IgG4 S228P, kappa, V domains shown)
VH: QVQLQQWGAGLLKPSETLSLTCAVYGGSFSGYYWNWIRQPPGKGLEWVGEISHRGSTNYNPSLKSRVTISLDTSKNQFSLKLTSVTAADTAVYYCSRDEELEFRFFDYWGQGTLVTVSS
VL: EIVLTQSPATLSLSPGERATLSCRASQSVSSYLAWYQQKPGQAPRLLVYGASNRATGIPARFSGSGSGTDFTLTISSLEPEDFAFYYCQQRSNWPLTFGGGTKVEIKR
notes: H4sH = modified human IgG4 Fc
B3: H4sH15498P2 (antibody, V domains shown)
VH: EVQLVESGGGLVQPGGSLRLSCAASGFTFTSYAMTWVRQAPGKGLEWVSDISGSGGRTYYADSVKGRFTISRDNSKNMLYLQMNILRAEDTAVYHCAKGTGQQVDLYNYYYALDVWGQGTTVTVSS
VL: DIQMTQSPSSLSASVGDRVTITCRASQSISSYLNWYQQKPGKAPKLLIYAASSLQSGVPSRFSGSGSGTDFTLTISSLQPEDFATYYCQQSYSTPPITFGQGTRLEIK
notes: H4sH = human IgG4 Fc with 2 or more amino acid changes as disclosed in US20140243504
B4: H4H15498P2 (antibody, human IgG4, V domains shown)
VH: B3 VH
VL: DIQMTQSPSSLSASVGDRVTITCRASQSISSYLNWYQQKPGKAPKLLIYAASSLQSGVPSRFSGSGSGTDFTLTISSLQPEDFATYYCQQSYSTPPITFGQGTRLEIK
notes: as for B1
B5: H4sH15482P (antibody, human IgG4 S228P, kappa)
heavy: QVQLVESGGGVVQPGRSLRLSCVASGFTFSSYGMHWVRQAPGKGLEWVAIIWYDGSNKYYADSVKGRFTISRDNSKNTQYLQMNSLRAEDTAVYYCASVATSGDFDYYGMDVWGQGTTVTVSSASTKGPSVFPLAPCSRSTSESTAALGCLVKDYFPEPVTVSWNSGALTSGVHTFPAVLQSSGLYSLSSVVTVPSSSLGTKTYTCNVDHKPSNTKVDKRVESKYGPPCPPCPAPPVAGPSVFLFPPKPKDTLMISRTPEVTCVVVDVSQEDPEVQFNWYVDGVEVHNAKTKPREEQFNSTYRVVSVLTVLHQDWLNGKEYKCKVSNKGLPSSIEKTISKAKGQPREPQVYTLPPSQEEMTKNQVSLTCLVKGFYPSDIAVEWESNGQPENNYKTTPPVLDSDGSFFLYSRLTVDKSRWQEGNVFSCSVMHEALHNHYTQKSLSLSLGK
light: EIVLTQSPATLSLSPGERTTLSCRASQRISTYLAWYQQKPGQAPRLLIYDASKRATGIPARFSGSGSGTGFTLTISSLEPEDFAVYYCQQRSNWPLTFGGGTKVEIKRTVAAPSVFIFPPSDEQLKSGTASVVCLLNNFYPREAKVQWKVDNALQSGNSQESVTEQDSKDSTYSLSSTLTLSKADYEKHKVYACEVTHQGLSSPVTKSFNRGEC
notes: H4sH = modified human IgG4 Fc; also called mAb1
B6: H4H15482P (antibody, human IgG4 S228P, kappa)
heavy: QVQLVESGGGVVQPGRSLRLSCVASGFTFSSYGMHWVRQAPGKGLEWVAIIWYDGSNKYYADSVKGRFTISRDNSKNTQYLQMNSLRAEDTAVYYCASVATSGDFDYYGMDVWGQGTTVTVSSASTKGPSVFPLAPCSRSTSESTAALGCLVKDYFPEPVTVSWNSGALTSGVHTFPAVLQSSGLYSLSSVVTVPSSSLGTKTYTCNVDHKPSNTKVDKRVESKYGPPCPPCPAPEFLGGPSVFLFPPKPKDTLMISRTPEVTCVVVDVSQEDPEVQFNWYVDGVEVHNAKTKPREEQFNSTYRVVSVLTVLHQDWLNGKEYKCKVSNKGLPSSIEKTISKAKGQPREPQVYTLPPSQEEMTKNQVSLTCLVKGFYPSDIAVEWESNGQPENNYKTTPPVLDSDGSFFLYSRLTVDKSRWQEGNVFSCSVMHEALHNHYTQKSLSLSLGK
light: B5 light
notes: H4H = human IgG4 Fc with S108P
B7: H4H17819P (antibody, human IgG4, V domains shown)
VH: EVQLVESGGGLVQPGGSLRLSCVASGFTFSLYAMTWVRQVPGKGLEWVSTISGSGGGTYYTDSVKGRFTISRDNSKNTLYLQMNSLRADDTAVFYCTKESTTGTYSYFYGMDVWGQGTTVTVSS
VL: DIQMTQSPSSLSASVGDRVTITCRASQTISSYLNWYQQKPGKAPKLLIYAASSLQSGVPSRFSGSGSGTDFTLTLSGLQPEDFATYYCQQSYSTPLTFGGGTKVEIK
notes: as for B1
B8: H4sH15462P (antibody, V domains shown)
VH: QVQLVQSGAEVKKPGASVKVSCKASGYTFTNYYIHWVRQAPGQGLDWMGIINPGGGNTNYAQKFLGRVTMTRDTSTTTVYMELSSLRSEDTAIYYCARENWNSYFDNWGQGTLVTVSS
VL: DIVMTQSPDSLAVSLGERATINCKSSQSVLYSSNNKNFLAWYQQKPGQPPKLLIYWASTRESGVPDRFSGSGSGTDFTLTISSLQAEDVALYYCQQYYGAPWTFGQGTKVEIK
notes: as for B3
B9: H4H15462P (antibody, human IgG4, V domains shown)
VH: B8 VH
VL: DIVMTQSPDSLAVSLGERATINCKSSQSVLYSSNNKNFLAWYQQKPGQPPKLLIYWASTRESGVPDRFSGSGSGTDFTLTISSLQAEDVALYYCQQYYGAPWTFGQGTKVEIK
notes: as for B1
B10: H4H15479P (antibody, human IgG4, V domains shown)
VH: QVQLQQWGAGLLNPSETLSLTCAVYGGAFSDYYWNWIRQPPGKGLEWIGEINHRGSTNYNPSLKSRVTISVDTSKNQFSLRMSSVTAADAAVYYCARGEDYDIWNGYYQEKWGQGTLVTVSS
VL: EIVLTQSPATLSLSPGERATLSCRASQSISTYLAWYQQKPGQAPRLLIYDASKRATGIPARFSGSGSGTDFTLTISSLEPEDFVVYYCHQRSNWPLTFGGGTKVEIK
B11: H4sH15479P (antibody, V domains shown)
VH: B10 VH
VL: B10 VL
B12: H4H14813N (antibody, human IgG4, V domains shown)
VH: B2 VH
VL: B10 VL with I29V, T31S, I48V, D50G, K53N, V84A, V85F, H89Q
notes: as for B1
B13: H4H15483P (antibody, human IgG4, V domains shown)
VH: QVQLQQWGAGLLPPSETLSLICAVYGGSFSGYYWSWIRQPPGKGLEWIGEINHRGSTNYNPSLKSRATISVDTSKNQFSLKLSSVTAADTAVYYCSRGEDYYDSSGYSYYFDYWGQGTLVTVSS
VL: B10 VL with I29V, T31S, K53N, V84A, H89Q
notes: as for B1

What was measured:
[1] = biological target: T1, monkey LAG3 (mfLAG3) expressed on …; test: flow cytometry, HEK293/mfLAG3 cells
Method: (§1) The serially diluted antibodies were added to the cell suspension and incubated for 15-30 minutes on ice. The cells were centrifuged and pellets were washed with staining buffer to remove unbound antibodies. […] The cells were centrifuged and pellets were washed with staining buffer to remove unbound secondary F(ab′)2 and fixed overnight with a 1:1 dilution of Cytofix (BD Biosciences, #554655) and staining buffer. Following day, fixed cells were centrifuged and pellets were washed with staining buffer, resuspended and filtered. Fluorescence measurements were acquired on HyperCyt® cytometer and analyzed in ForeCyt™ (IntelliCyt; Albuquerque, N. Mex.) to determine the mean fluorescence intensities (MFI). The EC₅₀ values were calculated from a four-parameter logistic equation over an 11-point response curve using GraphPad Prism. EC₅₀ was defined as the concentration of antibody at which 50% of maximal binding signal is detected. The MFI ratio for each antibody was calculated by dividing the MFI at 100 nM by MFI at 0 nM of antibody concentration.

[2] = biological target: T2, cynomolgus LAG3 on activated CD4+ and …; test: FACS, stimulated cynomolgus CD8+ T cells, donor 1
Method: (§2) Next, stimulated cynomolgus T-cells from each donor, as described above, were stained with LIVE/DEAD dye (Molecular Probes) to distinguish between live and dead cells via FACS. Subsequently, cells were co-incubated with PE-conjugated anti-CD8 and FITC-conjugated anti-CD4 for 15 min on ice to enable the detection of CD4 and CD8 positive and negative cell populations.
(§3) Next, the serially diluted antibodies were directly labeled using Zenon Alexa-Fluor 647 (Molecular Probes) and incubated with the cynomolgus CD4+/CD8+ T-cell suspension for 15-30 min on ice. Cells were centrifuged and pellets washed with staining buffer to remove unbound antibodies and fixed for 12 h with a 1:1 dilution of Cytofix (BD Biosciences) and staining buffer. Following the incubation period, fixation buffer was removed and pellets were resuspended in staining buffer, filtered, and used for fluorescence measurements.
(§4) Fluorescence measurements were acquired on the Fortessa (Becton Dickinson) and data analyzed in FlowJo to determine the mean fluorescence intensities (MFI). EC₅₀ values were calculated from a four-parameter logistic equation over an 11-point response curve using GraphPad Prism.

[3] = biological target: T2, cynomolgus LAG3 on activated CD4+ and …; test: FACS, stimulated cynomolgus CD4+ T cells, donor 1
Method: as §2, §3, §4

[4] = biological target: T1, monkey LAG3 (mfLAG3) expressed on …; test: flow cytometry, HEK293/mfLAG3 cells; FACS on HEK293/mfLAG3 cells; MFI ratio 100 nM/0 nM
Method: as §1

[5] = biological target: T1, monkey LAG3 (mfLAG3) expressed on …; test: flow cytometry, HEK293/mfLAG3 cells; FACS on HEK293/mfLAG3 cells
Method: as §1

[6] = biological target: T2, cynomolgus LAG3 on activated CD4+ and …; test: FACS, stimulated cynomolgus CD4+ T cells, donor 2
Method: as §2, §3, §4

[7] = biological target: T2, cynomolgus LAG3 on activated CD4+ and …; test: FACS, stimulated cynomolgus CD8+ T cells, donor 2
Method: as §2, §3, §4

Binder | EC50 [1] | Ratio of MFI (100 nM/0 nM) [1] | EC50 [5] | further results
B1 | > 10 nM | 14.3 |  | 
B2 |  |  | 1.57 nM | EC50 [2]: 0.085 nM; Ratio of MFI (11 nM/0 nM) [2]: 3.5; EC50 [3]: 0.42 nM; Ratio of MFI (11 nM/0 nM) [3]: 1.3; Ratio of MFI (100 nM/0 nM) [4]: 16.7; EC50 [6]: 0.22 nM; Ratio of MFI (11 nM/0 nM) [6]: 1.5; EC50 [7]: 0.11 nM; Ratio of MFI (11 nM/0 nM) [7]: 6.3
B3 | > 10 nM | 12.1 |  | 
B4 | > 10 nM | 12.8 |  | 
B5 |  |  | 1.15 nM | EC50 [2]: 0.46 nM; EC50 [3]: 1.2 nM; EC50 [6]: 0.38 nM; EC50 [7]: 0.41 nM
B6 |  |  | 2.2 nM | 
B7 | > 10 nM | 12.1 |  | 
B8 |  | 1 |  | binding result [1]: no binding (tested: 100 nM)
B9 |  | 2.9 |  | binding result [1]: no binding (tested: 100 nM)
B10 | 1.35 nM | 21.5 |  | 
B11 |  |  | 0.902 nM | Ratio of MFI (100 nM/0 nM) [4]: 20.7
B12 |  |  | 1.42 nM | Ratio of MFI (100 nM/0 nM) [4]: 17.1
B13 | > 10 nM | 8.8 |  | 
